Data reported in the DeepSol protein solubility set.

Experiment: soluble on expression in E. coli; label from the status in PepcDB or PDB records

MGSDKIHHHHHHMKCNDKLAPFEVFDHVVNKKLSFRHVTMDDVDMLHSWMHEEHVIPYWKLNIPLVDYKKHLQTFLNDDHQTLMVGAINGVPMSYWESYWVKEDIIANYYPFEEHDQGIHLLIGPQEYLGQGLIYPLLLAIMQQKFQEPDTNTIVAEPDRRNKKMIHVFKKCGFQPVKEVELPDKIGLLMKCEQNVFEKRWSDWKMNKF
soluble on expression in E. coli: not soluble

MSGGLLIESVIPGSIASELEIEPGDRLVAVNNRPLRDIVDYNFHADGEELLLEIVKPSGEVWEVEVERDDDEALGLVFAAPEPARCGNRCVFCFVHQLPKGLRRPLYVKDEDYRLSFLYGNYVTLSNIGEEDLQRIIEQRLSPLYISVHATDPALRERLLGRKGIIPILDIMTRLAEARITMHTQAVLCPGWNDGDALRRTVADLASLYPRVASLAIVPVGLTRHRDRLPLLEPVSADYARDFIYEWLPEAQRLADAFGEPFLFLADEFFIKADAPFPPLDFYGDFPQIENGVGMIPLFMDEADRVLRRARRMKPRTLTVVTGHSPYRYLADFLARLSARTGITFQPVAIPNRLFGESVTVTGLVAGRDILSELAGRNLGDGVLIPDVMLKEGEGVFLDDLTIGALEQGLGVPVVVVPSSPAGVMEGIRALRPLEHHHHHH
soluble on expression in E. coli: not soluble

MIIVYTTFPDWESAEKVVKTLLKERMIACANLREHRAFYWWEGKIEEDKEVGAILKTREDLWEELKERIKELHPYDVPAIIRIDVDDVNEDYLKWLIEETKK
soluble on expression in E. coli: soluble

DISEELDYERGRYLDAMIDNHKYTGKARAIIYGQPELALALAKVCFENGVNVKLIALGAKNKILEEALKEEIKSQREEVLVLDDTDFDTIEKYAKEFNVNLFIGNSDGRRMASRLGIEIIRVGFPIHDRV
soluble on expression in E. coli: not soluble

RGDSLNYRLLRPEVEKTGLQYPLVLFLHGAGERGSDNEKQLTHGGQMFLNPVNREKYPAFVLVPQCPEKDYWAYTSRPSSFIPSEMPVGQEITPVLRAVKELLDTYLDLPQVDRNRIYVVGLSMGGMATYDLAVRFPDTFAAAVPICGTVNPVRLADAANVRFRIFHGDADNVVPVEGSREAYKALKNLGAEVEYIEFPGCNHGSWNPAFNYPGFMEWLFAQRK
soluble on expression in E. coli: not soluble

MGSDKIHHHHHHMYLVEVFFTYRQPQKLPISNISYLINQIIEQWRYNGQIIGREIPLFVAVQNNEEGFALRVTCPEQQSLLPTFNNIQVDKALKQAKSAGIFFDSFQIIADDLNSDITYSKEVATWQVLYTTYLQSCSPLHSGDNLLPIPLYKQFKNIPHLSMDIIKWQENWQACDQLQMNGSILEQQALYEISDFNSHLTKHGYYLTQEIEKHTGIPTFYYLYRIGGDDLQSEQQRLCPNCQQKWHLDKPLFNLFHFKCDHCRLVSNLSWHWQ
soluble on expression in E. coli: not soluble

MRLPDAGFRRYIVVAGRRNVGKSSFMNALVGQNVSIVSEYAGTTTDPVYKSMELYPVGPVTLVDTPGLDDVGELGRLRVEKARRVFYRADCGILVTDSEPTPYEDDVVNLFKEMEIPFVVVVNKIDVLGEKAEELKGLYESRYEAKVLLVSALQKKGFDDIGKTISEILPGDEEIPYLGDLIDGGDLVILVVPIDLGAPKGRLIMPQVHAIREALDREAIALVVKERELRYVMENIGMKPKLVITDSQVVMKVASDVPEDVELTTFSIVESRYRGDLAYFVESVRKIEELEDGDTVVIMEGCTHRPLTEDIGRVKIPRWLVNHTGAQLNFKVIAGKDFPDLEEIEGAKLIIHCGGCVLNRAAMMRRVRMAKRLGIPMTNYGVTISYLHGVLDRAIRPFREEVKVLEHHHHHH
soluble on expression in E. coli: soluble

MSLQEKNFSEEEIDDALSRCQAKNWQSDRRFSENYLNSRVQKGYGVGRIRQELRQLKGVSSDIIDEVLMESEIDWYEMAENLLRKKFPNYNEQQTPKMKQKIWQYMLSHGFRSDEFADLIGQNQSEWDEGHHHHHH
soluble on expression in E. coli: soluble

MKLVILLSFVATVAVFAAPSAPAGLEEKLRALQEQLYSLEKENGVDVKQKEQPAAADTFLGFVPQKRMVAWQPMKRSMINEDSRAPLLHAIEARLAEVLRAGERLGVNPEEVLADLRARNQFQ
soluble on expression in E. coli: not soluble

MLTALKTDTGKIRQHNEDDAGIFKGKDEFILAVVADGMGGHLAGDVASKMAVKAMGEKWNEAETIPTAPSECEKWLIEQILSVNSKIYDHAQAHEECQGMGTTIVCALFTGKTVSVAHIGDSRCYLLQDDDFVQVTEDHSLVNELVRTGEISREDAEHHPRKNVLTKALGTDQLVSIDTRSFDIEPGDKLLLCSDGLTNKVEGTELKDILQSDSAPQEKVNLLVDKANQNGGEDNITAVLLELALQVEEGEDQC
soluble on expression in E. coli: soluble

MKTYNIPVEATLEVIGGKWKVVILCHLKKDKKRTCELKQLMSGITQKMLTQQLRELEEDGVIERKVYNQVPPKVEYSLTDYGHSLDSILDTLCNWGENHLEKNGNTSMLITAAE
soluble on expression in E. coli: not soluble

EKRVRRTRSLVEVLNVDPETGDLGINEIFNWYPSEDGFLKVGDSHIMQEIMHVRGWDSGQLRGEMENRRKILTYMYEKNMRSYIQVSLVVQAYQSYPKMVMEAIENNILQGMIQDMVA
soluble on expression in E. coli: not soluble

MKKVSPSYLKHQFLIAMPHMHDENFAQTLTYVVEHNANGAMGLVINRPQSLTLADVLEQLRPELPAPKRCQEIAIHAGGPVQTDRGFVLHPSGQTFQATVDLPGGISLSTSQDVLFSIADGYGPDQNVITLGYAGWDAGQLDAEMADNAWLTCSFDPAILFDVDSDQRLDAAARRLGINLALISTQAGHAAAALEHHHHHH
soluble on expression in E. coli: not soluble

ENSHNKARTSPYPGSKVERSQVPNEKVGWLVEWQDYKPVEYTAVSVLAGPRWADPQISESNFSPKFNEKDGHVERKSKNGLYEIENGRPRNPAGRTGLVGRGLLGRWGPNHAADPIITRWKRDSSGNKIMHPVSGKHILQFVAIKRKDCGEWAIPGGMVDPGEKISATLKREFGEEALNSLQKTSAEKREIEEKLHKLFSQDHLVIYKGYVDDPRNTDNAWMETEAVNYHDETGEIMDNLMLEAGDDAGKVKWVDINDKLKLYASHSQFIKLVAEKRDAHWSEDSEADCHAL
soluble on expression in E. coli: soluble

MDYRVLLYYKYTTIDDPELFATEHLAFCKDLELKGRILVSTEGINGTVSGTVEATDKYMEALKNDARFQGITFKVDEAEGHAFKKMHVRPRQEIVALDLEDDVNPRELTGNYLSPKEFREALLSDDTVVIDARNDYEYDLGHFRGAVRPDITRFRDLPDWIKENKEQFMDKKIVTYCTGGIRCEKFSGYLLKEGFEDVSQLEGGIATYGKDPETKGEFWDGKMYVFDERISVEVNHVDKTVVGKEWFDGTPCERYINCSNPECNKQILVSEENEARYLGACSHECAKHENNRYVKKHNISDEEKAKRLENFKELVKLEHHHHHH
soluble on expression in E. coli: not soluble

AIIVKKTTEIEQTHKDYDPYQILGLDQGADEKAIKKAWRDMSKIHHPDRGGDAQFFDKIAKAHQALTDKEARENWEKYGNPDGPTATTFGIALPKWLVSKEYGL
soluble on expression in E. coli: not soluble

MIRVIEKGDKVSLPFSRGILTRSITSVGIDVDLAYSIAIEVQEELVKKGKTIVTKDEIRKLTYQKLIEKGFKEEAKRYIFWRRFRKMKVPLIILLGGPTGVGKSTIATELAFRLGIRSVIGTDSIREVLRKIITPELLPTIHTSTFLAWKELKGTVTDSPIVAGFESQVSAVTVGINAIIERAVREGLNAIIEGIHVVPGFVKVEGEMTFMYMLIARSREDLEARFYERTRYSKRPADYYISHLDEILEIQDYLIRRAKKFNVPVIENVELEETVSKIMEDIMQKTIEIMKGKGLDLLEEP
soluble on expression in E. coli: soluble

MSLKVGLKLLQTPKESMLFNIDSYKIIGIGISRGNEKYMKSTICVARNIFTNGILVGSFEGILGGRTARLCSYKFVDYFLNKVSNKVVQESIEESLISTFQRLNEKIKEKNLNDVSSGLVYVFYNKILYFAQCGSIKSYIISNSNIKEIGFDHCLSNNEMKKKIMQKGGLVDNNNMLNGVINVCKCIGESNYHNLLNTTPDITKIEYDDDFKFVLTASKSVWDVIDQNELQSIVINSAHIQPPGIANLIRNIALERNCKGNISVTILSLDSEGHHHHHH
soluble on expression in E. coli: soluble

MEGVELKEEWQDEDFPIPLPEDDSIEADILAITGPEDQPGSLEVNGNKVRKKLMAPDISLTLDPSDGSVLSDDLDESGEIDLDGLDTPSENSNEFEWEDDLPKPKTTEVIRKGSITEYTAAEEKEDGRRWRMFRIGEQDHRVDMKAIEPYKKVISHGGYYGDGLNAIVVFAVCFMPESSQPNYRYLMDNLFKYVIGTLELLVAENYMIVYLNGATTRRKMPSLGWLRKCYQQIDRRLRKNLKSLIIVHPSWFIRTLLAVTRPFISSKFSQKIRYVFNLAELAELVPMEYVGIPECIKQVDQELNGKQDEPKNEQLEHHHHHH
soluble on expression in E. coli: soluble

MQATIYDLDGNTDGEVDLPDVFETPVRSDLIGKAVRAAQANRKQDYGSDEYAGLRTPAESFGSGRGQAHVPKLDGRARRVPQAVKGRSAHPPKTEKDRSLDLNDKERQLAVRSALAATADADLVADRGHEFDRDEVPVVVSDDFEDLVKTQEVVSLLEALDVHADIDRADETKIKAGQGSARGRKYRRPASILFVTSDEPSTAARNLAGADVATASEVNTEDLAPGGAPGRLTVFTESALAEVAER
soluble on expression in E. coli: soluble

NKDWSYRIGFNLYDSQSEITKYNNETNLLGDKIYRKGMKMGEIWGYVTDRFYTEDDFNADGTLKPGIPIPKGAGKVFPGDVLYKNFDDDTETIWSGEGTADNPGDQRIIGNSTPRFHYGITAGISWKGLDLSIFLRGVGKRDYWRTDQIAWPTGGWGSLFKETLNFWTPTNTNAYYPRVYSNDGVNTSYNHWKQSKYLANASYLKLQNITLSYTLPKVWSQRLYFDDVKVFFSGENLYTWDHLPEGLETDMLSKGAWEYPFMRKFSFGINVTF
soluble on expression in E. coli: not soluble

VSIYLKPIINKLTPESRNTLDSAINYAISRSHHEVDCLHLLWKLLQEHKYIAEVLYEQSLFNPEWVLNAIESELIRINTVPQSSPVFSESMQTLLEKTWIHASTKWQIDHIDIPVFLSTMINFRDSIFPLNVSDALCCDMDVAEELLISFSDEAEHSASHRPTDRSSHEYLSKYTENLSLRAETGKLDPVTGREKEVRQLIDILLRRRQNNPILTGEPGVGKSSIVEGLALQIASGRVPDVLKNVRIHALDMGALLAGASVRGEFENRLKSLLTELNSLDGTAILFIDEAHSLIGAGGLPGQTDAANLLKPALARGELRIIAATTWGEYKKYFEKDGALARRFQIVKVAEPNQDVTAEMLRSLLPMMEKHHNVSIREEAITATVHLSDRYLHGRRQPDKSVSLLDTACSRVAVSQSTSPDAIQDVEASLVRYQGELALLTQERSDVLRQEMLANKIAQLEEELEQLKSAWRHQSELVAKIQSSDDISSKNMYRKELESAYKKDSPMVFECVDKNCVADVVSGWTGVPLGVCLDGEQQKASGLLRCLEQRVLGQRYAMSAIASQVLICRADLKDPVKPDGVFLLAGPSGTGKTETARALAEFVYGDENKLITINMTEFQEAHTVSTLKGAPPGYVGFGQGGTLTERVSHNPYSVILLDEIEKAHPDVLEFFFQIFDSGIIEDAEGKMVSFRDCLIIMTSNFASENITNIWNDGETNRDRIKEMLLPLFNEHFGAAFMGRTNLIPFTPLHSKTLRDIVLIKIDKICQRFEQASGQMYKIEYNDSLIDWITHHCQCDKSGARDIDSVLNSTVLPVLARYLTDSEDNRTPKKIRISVRKNNITLRSSQFATRN
soluble on expression in E. coli: not soluble

MKKIGFVGAGSMAEAMINGILQSGITKPEHIYITNRSNDERLIELKETYSVRPCRDKNEFFTHTDIIILAFKPKDAAESIDSIRPYIKDQLVISVLAGLTIETIQHYFGRKLAVIRVMPNTSAAIRKSATGFSVSTEASKNDIIAAKALLETIGDATLVEERHLDAVTAIAGSGPAYVYRYIEAMEKAAQKVGLDKETAKALILQTMAGATDMLLQSGKQPEKLRKEITSPGGTTEAGLRALQDSRFEEAIIHCIEETAKRSAEIKEQFAGAALERHSLEHHHHHH
soluble on expression in E. coli: soluble

MFDGIGFMELLLIGVLGLIVLGPERLPVAVRSVTSWVRAMKRMANSVKEELEQELKIEQLHADLKKAESKGLSNLSPELQESIEQLKQAAQSVNRPYQVQDTPSAQDNQIHNPASQTVSTEASSTSASSAPKSESIQGEDPRSNTKANGLEHHHHHH
soluble on expression in E. coli: soluble
